# Results published in article PMC9839372 (2023).
# B1: GFP-tagged PRR14 (1-212) wild-type fragment [human] / Heterochromatin Protein 1 gamma (HP1γ) [human (endogenous in Lenti-X 293T)] (parent complex)
# chain 1: MDLPGDSSPPGQPRLCRQPLTRALWGARSPKRPRLQLPGAPSPLEKASRRVLAVVLEDVMAVHMVPVVPSKQTSIPQHHSYHQDPVHRQPPASPPRQAGWSSQARPPDPLCLCREPLSRIHRTSSTLRRRSRTTPGPEEGPSQKVDRAPQPTLVVMLEDIASPRPPAEGFIDETPNFIIPAQRAEPMRIVRQPTPPPGDLEPPFQPSALPAD
# chain 2: not shown
# B2: GFP-tagged PRR14 (1-212) wild-type fragment [human] / Heterochromatin Protein 1 beta (HP1β) [human (endogenous in Lenti-X 293T)] (parent complex)
# chain 1: B1 chain 1
# chain 2: not shown
# Variants of: B1
# Assay: co-immunoprecipitation (anti-GFP IP) with Western blot, band intensity quantified; lysates of 293T cells expressing GFP-PRR14 (1-212) constructs; n = 3 independent immunoprecipitations; parent: 95; read off a plot
row,response,Variant
1,~17,"chain 1 V54E, chain 1 V55E"
2,~95,"chain 1 V154E, chain 1 V155E"
3,~6,"chain 1 V54E, chain 1 V55E, chain 1 V154E, chain 1 V155E"

# Variants of: B2
# Assay: co-immunoprecipitation (anti-GFP IP) with Western blot, band intensity quantified; lysates of 293T cells expressing GFP-PRR14 (1-212) constructs; n = 3 independent immunoprecipitations; parent: 91; read off a plot
row,response,Variant
1,~91,"chain 1 V154E, chain 1 V155E"
2,~43,"chain 1 V54E, chain 1 V55E, chain 1 V154E, chain 1 V155E"
3,~35,"chain 1 V54E, chain 1 V55E"
